Reference: the supplement of paper PMC9170038

Test system: MS2 coat protein
Experiment: apparent KD of MS2 coat protein; designed switch direction (-1 OFF switch, 1 ON switch): -1; higher = weaker reporter binding
In short: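 On Illumina chips, designed RNA switches with common flanks were made by stalled E. coli RNA polymerase. Titrations with SNAP-549-labelled MS2 coat protein, doubling from 0.7 or 1.5 nM to 3 µM, were done with no input, with 200 uM small-molecule ligand, or with an oligonucleotide input. Apparent KD is the median per design over clusters, from curve fits of normalised cluster fluorescence.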

[1] = input ligand: microRNA oligo, concentration not stated
[2] = Eterna round: R95, input ligand: FMN 200 uM
[3] = Eterna round: R95, input ligand: microRNA oligo, concentration not stated
[4] = Eterna round: R95, input ligand: none

Row | Sequence | apparent KD of MS2 coat protein [1] | apparent KD of MS2 coat protein (input ligand: FMN 200 uM) | apparent KD of MS2 coat protein (input ligand: none) | apparent KD of MS2 coat protein [2] | apparent KD of MS2 coat protein [3] | apparent KD of MS2 coat protein [4]
1 | AAAACUCACGUAGGAUAUCAUUCCUUAAGGUAGUGAGAAGGACGUGACUACAUGUCCUUGAACAUGAGGAUCACCCAUGUAGGC [Cerama] (Eterna round: R96, puzzle: Exclusion NG 1) | 0.0365 µM | – | – | – | – | –
2 | CCACGACAUGAGGAUCACCCAUGUGAGGAUAUGGCCUGAAAAGCGUGAGCAGUUUCAAUCAGAAGGCGCGUGGG [salish99_ex1_r4_062] (Eterna round: R97, puzzle: Exclusion 1) | – | 0.162 µM | 0.0622 µM | – | – | –
3 | UUGUAUAUCUAUGGGAGUAACAUGAGGAUCACCCAUGUAUGUCUUGUUUUUUGUUCGUCAUAGGCCAAUUGAAUGGU [JR_SV3TOV1_Sub026] (puzzle: Sensor v3, turn-off variant 1) | – | – | – | 0.0259 µM | 0.0345 µM | 0.0289 µM
4 | GCUGGUCGAGGAUAUACAUGAGGAUCACCCAUGUAGAUCAACCAGCGAUAGCUGGAAUGUAGAAGGUGACCAGC [E3/5-B1] (Eterna round: R97, puzzle: Exclusion 3) | – | 0.0219 µM | 0.0159 µM | – | – | –
5 | AGAAAUGCCCAUGGCCACAAGCUUUUUGCUUGUCUUACUACAUGAGGAUCACCCAUGUACCAUGGGCUCCUGAUAAU [Anxemaes] (puzzle: Sensor v3, turn-off variant 2) | – | – | – | 0.0138 µM | 0.00975 µM | 0.0104 µM
6 | CUAUUCCGAGGAUAUACAUGAGGAUCACCCAUGUCGGGCCUCCGCGUUUAGCGCCUCAGUAGAAGGCGGGUUUC [JL Riri mod 2] (puzzle: Exclusion 3) | – | – | – | – | 0.0172 µM | –
7 | GGUACUCAUGUGAGGAUAUGCUCGAAUGCAGACGAGCAGAAGGUACAUGAGGAUCACCCAUGUACCAUAAAGUA [Eternabot (Original) Solution 1] (Eterna round: R97, puzzle: Brourd's mod of Exclusion 4) | – | 0.0236 µM | 0.0131 µM | – | – | –
8 | AAAGGACGAGGAUAUACAUGAGGAUCACCCAUGUAAAAAGCAUAAUAAAAUAACUUAUGUAGAAGGCGUCCAAA [Mat - Exclusion 3 - Eli mod - D91] (Eterna round: R96, puzzle: Exclusion 3) | 0.0185 µM | – | – | – | – | –
9 | AAGUAGUGUGUGAGGAUAUUGGUGGAAUGACACAUUAAGAAGGCACAUGAGGAUCACCCAUGUGGGUUGACACG [Brourd's EX4 #20] (Eterna round: R97, puzzle: Brourd's mod of Exclusion 4) | – | 0.282 µM | 0.0471 µM | – | – | –
10 | ACAAGCUUAGGUUUUCAUAACAUGAGGAUCACCCAUGUUCGUCUUAUAAAAAUAAAAAUAAAAAACAAAAAAUAAAA [Sensor V2: 66] (Eterna round: R96, puzzle: Sensor v2, turn-off variant) | 0.117 µM | 0.0391 µM | 0.0412 µM | – | – | –
11 | UCUCGACAUGAGGAUCACCCAUGUCAGGAUAUUGUGUUUGAGGUUUUUUACCUUUUGGCAAGAAGGGAUGUGUG [LRO-Excl1-21] (puzzle: Exclusion 1) | – | – | – | – | 0.0249 µM | –
12 | GCACUUGAACAUGAGGAUCACCCAUGUGUUUUUCUUGUUCGGCAGGAUAUCGUCUAGCGCCAGGACGAGAAGGGCCAAUAAAAG [Ratiarveed] (Eterna round: R96, puzzle: Exclusion NG 3) | 0.061 µM | 0.0778 µM | 0.141 µM | – | – | –
13 | GUGUAGUCAGGAUAUACAUGAGGAUCACCCAUGUGAAUAAGAUAGAAUAAGAUAAAGUGUAGAAGGGACAGUGU [Excluse me!!! 4 - Jieux - Exclusion 3] (puzzle: Exclusion 3) | – | – | – | 0.0338 µM | 0.0341 µM | 0.0359 µM
14 | ACUUGUUGUCCUUGAUAUUACAUGAGGAUCACCCAUGUUAUUGUGAUUUUGAUGUGUAAGUUUGUUGCUCGUCUUAU [JR_STOV1_Sub064] (Eterna round: R97, puzzle: Sensor, turn-off variant 1) | – | 0.0702 µM | 0.0715 µM | – | – | –
15 | AAAACGGACCGAGGAUAUACACGAUAUCUUUGCGUAGAAGGCGGACCGGCGACUUGAGGAUCACCCAAGUGUCCUCUUUUGCGG [Mutated MS2 EX1.4] (Eterna round: R96, puzzle: Exclusion NG 1) | 0.11 µM | 0.323 µM | 0.175 µM | – | – | –
16 | CCUCUACAUGAGGAUCACCCAUGUGAGGAUAUCAAAGUCAGGGCGGCGCCCUGACUCAUGAGAAGGUGCAUGAA [EX1 A.16] (Eterna round: R97, puzzle: Exclusion 1) | – | 0.0318 µM | 0.0224 µM | – | – | –
17 | CUAUAGUAUGUAGGAUAUCGGUCAGUUUCUGAUCGAGAAGGACAUGAGGAUCACCCAUGUAAGGCUACCGGUUUCUGGUGGCCG [JL ENG1 3.54] (Eterna round: R96, puzzle: Exclusion NG 1) | 0.0185 µM | 0.0616 µM | 0.0236 µM | – | – | –

Row | Sequence | apparent KD of MS2 coat protein [1] | apparent KD of MS2 coat protein (input ligand: FMN 200 uM) | apparent KD of MS2 coat protein (input ligand: none) | apparent KD of MS2 coat protein [2] | apparent KD of MS2 coat protein [3] | apparent KD of MS2 coat protein [4]
18 | UUUUUAUAUGAAGGAUAUACUUAACAUGAGGAUCACCCAUGUGGUGUUGUGAGUGAGUGAGUUUAGUAGAAGGUCAAUUCGUUU [JMF's solution 80] (Eterna round: R96, puzzle: Exclusion NG 2) | 0.294 µM | 0.823 µM | 0.356 µM | – | – | –
19 | CACCUGAAGAGAGGAUAUGAUACAUGAGGAUCACCCAUGUAAUAAAUGAGAAUUUCGAAUGUAAUUCAGAAGGCUCAAUAAGGC [Ostricism 94 - Jieux - Exclusion NG 2] (Eterna round: R96, puzzle: Exclusion NG 2) | 0.0508 µM | 0.107 µM | 0.052 µM | – | – | –
20 | CACCGUUACGUAGGAUAUGUUACAUGAGGAUCACCCAUGUAAUAAAUGAGAAUUUCGAAUGUAAUACAGAAGGACGGAAUCGGC [Ostracism 70 - Jieux - Exclusion NG 2] (Eterna round: R96, puzzle: Exclusion NG 2) | 0.026 µM | 0.0533 µM | 0.032 µM | – | – | –
21 | CACGGACGAUAAGGAUAUGUUAUAGCUCAAACAGCAGAAGGUGUUAAACCACCGUCACAUGAGGAUCACCCAUGUGUGACAGUU [Eternabot solution 34] (Eterna round: R96, puzzle: Exclusion NG 1) | 0.0307 µM | 0.0465 µM | 0.0403 µM | – | – | –
22 | UUUUUGUGAGGAUAUCAGUAGUAAAAAAAUAAAAUUACUACUGAGAAGGCACAUGAGGAUCACCCAUGUUCCUU [salish99_ex4_r3_011] (puzzle: Exclusion 4) | – | – | – | – | 0.0145 µM | –
23 | UAAUACAAGUAGAGAUUCUACAUGAGGAUCACCCAUGUGCUCGUCUUAUAAAGUACUAUCACGAAAGUGAUAGUACA [Mat - Sensor v3 - turn-off var 1 - Eli Mod - D97] (Eterna round: R96, puzzle: Sensor v3, turn-off variant 1) | 0.124 µM | 0.0221 µM | 0.0224 µM | – | – | –
24 | AAAUCACAUGAGGAUCACCCAUGUCAGGAUAUCGACUGAACAGCUUCGGCUGUUCAGUCGAGAAGGGACAAUUA [Brourdxlusion 1 - Jieux - Exclusion 1] (Eterna round: R97, puzzle: Exclusion 1) | – | 0.133 µM | 0.0432 µM | – | – | –
25 | AGUUGGCGAGGAUAUACAUGAGGAUCACCCAUGUGAGAGAUAGUAGUGAGGUCGAUUAGUAGAAGGCGCUGACA [Mat X3R4 m13] (Eterna round: R97, puzzle: Exclusion 3) | – | 0.278 µM | 0.353 µM | – | – | –
26 | GUCAUACAUGAGGAUCACCCAUGUAAGGAUAUGCUAGCGGUCGGAAGAAUGACUGCUAGCAGAAGGUACAUGAU [Mat - Mod of JL D83] (puzzle: Exclusion 1) | – | – | – | – | 0.0625 µM | –
27 | ACAGUUUUGCAAGGAUAUCGUUUUAGUUUAUUACGAGAAGGUGCUUUAGUUAUUUCUUUGGGUUGACAUGAGGAUCACCCAUGU [JR_ExcNG1_Sub057] (Eterna round: R96, puzzle: Exclusion NG 1) | 0.144 µM | 0.136 µM | 0.148 µM | – | – | –
28 | GCUGGUCGAGGAUAUACAUGAGGAUCACCCAUGUGAUUAGCAGUCCUCGGACUGCAAUGUAGAAGGCGACCAGC [E3/2-A1] (Eterna round: R97, puzzle: Exclusion 3) | – | 0.62 µM | 0.439 µM | – | – | –
29 | CUGCUCCGUGUAGGAUAUGCAUACAACCAAUAUGCAGAAGGACAUGAGGAUCACCCAUGUAUGUUAUUAUCACGUGAAGCGUCC [Design 20] (Eterna round: R96, puzzle: Exclusion NG 1) | 0.0168 µM | – | – | – | – | –
30 | ACAUGUUGUCCAUGAUAUUACAUGAGGAUCACCCAUGUUAUGGCGAUUUUGAUGUGUAAGUUUGUUGCUCGUCUUAU [JR_STOV1_Sub061] (Eterna round: R97, puzzle: Sensor, turn-off variant 1) | – | 0.0192 µM | 0.0206 µM | – | – | –
31 | AUCUUGUAAGGAUAUCUUACAAGUGACUUCGGUCACAGUUAAGAGAAGGUACAUGAGGAUCACCCAUGUAUAAC [Ex4-3: 38] (puzzle: Exclusion 4) | – | – | – | – | 0.0238 µM | –
32 | GUUUCGAGACGGAGAUCCGACAUGAGGAUCACCCAUGUCUCGUAAGCUUUUUGCUCGUCUUAUACUCCUCUGUUCUC [Elimod 49 - Jieux - Sensor, turn-off variant 1] (Eterna round: R97, puzzle: Sensor, turn-off variant 1) | – | 0.026 µM | 0.0272 µM | – | – | –
33 | GCCGAUUAAGUGAGGAUAUACCUAUGGAUACAUAGGUAGAAGGCACAUGAGGAUCACCCAUGUUCCUCAUCGGC [Fiskers BMX 4 - 11] (Eterna round: R96, puzzle: Brourd's mod of Exclusion 4) | 0.0165 µM | 0.155 µM | 0.0213 µM | – | – | –
34 | ACGCAACAUGAGGAUCACCCAUGUGAGGAUAUGUAAAUAGUAAACAAAUAGGAAAUGAACAGAAGGCACACCGG [JR_Exclusion1_Sub005] (puzzle: Exclusion 1) | – | – | – | – | 0.0325 µM | –
